Results: the supplement of paper PMC9112550, “Optimization of the antimicrobial peptide Bac7 by deep mutational scanning” (BMC Biology, 2022)

Tested on: Escherichia coli TOP10
Experiment: shrunken log2 fold change of peptide-encoding DNA abundance (4.5 h post-induction vs induction); higher = less antimicrobial activity (less host growth inhibition)
Conditions: time post-induction: 4.5 h; library: site-saturation at positions 5, 18, 19, 20
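Note: peptides expressed intracellularly from a pBAD plasmid library in pooled LB shake-flask culture, induced with 0.3% L-arabinose, DNA abundance read by NGS, three biological replicates, DESeq2 with apeglm shrinkage.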

Sequence	shrunken log2 fold change
RRIRSRPPRLPRPRPRPRMPPRP	0.0543
RRIRSRPPRLPRPRPRPRMRPRP	0.91
RRIRSRPPRLPRPRPRPRMVPRP	0.174
RRIRSRPPRLPRPRPRPRQAPRP	-0.0163
RRIRSRPPRLPRPRPRPRQIPRP	-0.066
RRIRSRPPRLPRPRPRPRRMPRP	0.141
RRIRSRPPRLPRPRPRPRSKPRP	0.0951
RRIRSRPPRLPRPRPRPRVPPRP	0.692
RRIRSRPPRLPRPRPRPRVVPRP	0.245
RRIRSRPPRLPRPRPRPRWDPRP	0.197
RRIRSRPPRLPRPRPRPRWIPRP	0.00261
RRIRSRPPRLPRPRPRPRWKPRP	0.206
RRIRSRPPRLPRPRPRPRWNPRP	0.0205
RRIRSRPPRLPRPRPRPRWQPRP	0.166
RRIRSRPPRLPRPRPRPSCAPRP	0.0589
RRIRSRPPRLPRPRPRPSCKPRP	-0.797
RRIRSRPPRLPRPRPRPSDQPRP	-0.127
RRIRSRPPRLPRPRPRPSEEPRP	-0.243
RRIRSRPPRLPRPRPRPSEHPRP	-0.579
RRIRSRPPRLPRPRPRPSGGPRP	-0.0437
RRIRSRPPRLPRPRPRPSGRPRP	0.185
RRIRSRPPRLPRPRPRPSGVPRP	-0.0112
RRIRSRPPRLPRPRPRPSGWPRP	0.434
RRIRSRPPRLPRPRPRPSHRPRP	-0.41
RRIRSRPPRLPRPRPRPSIYPRP	-0.00286

Sequence	shrunken log2 fold change
RRIRSRPPRLPRPRPRPSKMPRP	-0.0555
RRIRSRPPRLPRPRPRPSMNPRP	-0.454
RRIRSRPPRLPRPRPRPSMVPRP	-0.368
RRIRSRPPRLPRPRPRPSNRPRP	-0.114
RRIRSRPPRLPRPRPRPSQYPRP	-0.466
RRIRSRPPRLPRPRPRPSRHPRP	0.0757
RRIRSRPPRLPRPRPRPSSGPRP	-0.0991
RRIRSRPPRLPRPRPRPSTLPRP	0.658
RRIRSRPPRLPRPRPRPSWYPRP	-0.745
RRIRSRPPRLPRPRPRPTATPRP	0.703
RRIRSRPPRLPRPRPRPTCRPRP	-0.0471
RRIRSRPPRLPRPRPRPTEMPRP	0.233
RRIRSRPPRLPRPRPRPTFGPRP	-0.0366
RRIRSRPPRLPRPRPRPTFMPRP	-0.335
RRIRSRPPRLPRPRPRPTGHPRP	-0.0852
RRIRSRPPRLPRPRPRPTGVPRP	0.0241
RRIRSRPPRLPRPRPRPTHKPRP	0.202
RRIRSRPPRLPRPRPRPTINPRP	-0.229
RRIRSRPPRLPRPRPRPTLAPRP	0.542
RRIRSRPPRLPRPRPRPTLDPRP	0.47
RRIRSRPPRLPRPRPRPTMHPRP	0.0312
RRIRSRPPRLPRPRPRPTMRPRP	0.881
RRIRSRPPRLPRPRPRPTMWPRP	0.214
RRIRSRPPRLPRPRPRPTMYPRP	-0.247
RRIRSRPPRLPRPRPRPTNDPRP	-0.162

Sequence	shrunken log2 fold change
RRIRSRPPRLPRPRPRPTNIPRP	-0.434
RRIRSRPPRLPRPRPRPTNPPRP	-0.0555
RRIRSRPPRLPRPRPRPTPCPRP	0.254
RRIRSRPPRLPRPRPRPTPLPRP	0.159
RRIRSRPPRLPRPRPRPTQQPRP	0.138
RRIRSRPPRLPRPRPRPTQVPRP	0.839
RRIRSRPPRLPRPRPRPTREPRP	0.536
RRIRSRPPRLPRPRPRPTRVPRP	0.872
RRIRSRPPRLPRPRPRPTSCPRP	-0.0946
RRIRSRPPRLPRPRPRPTTKPRP	0.0807
RRIRSRPPRLPRPRPRPTTMPRP	0.0245
RRIRSRPPRLPRPRPRPTVCPRP	0.0523
RRIRSRPPRLPRPRPRPTYIPRP	-0.598
RRIRSRPPRLPRPRPRPTYKPRP	-0.495
RRIRSRPPRLPRPRPRPTYYPRP	-0.42
RRIRSRPPRLPRPRPRPVAAPRP	0.432
RRIRSRPPRLPRPRPRPVAHPRP	-0.0951
RRIRSRPPRLPRPRPRPVCCPRP	0.183
RRIRSRPPRLPRPRPRPVCDPRP	0.327
RRIRSRPPRLPRPRPRPVCLPRP	0.0459
RRIRSRPPRLPRPRPRPVCQPRP	-0.569
RRIRSRPPRLPRPRPRPVEGPRP	-0.00141
RRIRSRPPRLPRPRPRPVEMPRP	0.0369
RRIRSRPPRLPRPRPRPVFCPRP	-0.024
RRIRSRPPRLPRPRPRPVFFPRP	0.142

Sequence	shrunken log2 fold change
RRIRSRPPRLPRPRPRPVFWPRP	0.365
RRIRSRPPRLPRPRPRPVGYPRP	0.093
RRIRSRPPRLPRPRPRPVHLPRP	-0.177
RRIRSRPPRLPRPRPRPVHQPRP	0.0888
RRIRSRPPRLPRPRPRPVLAPRP	0.557
RRIRSRPPRLPRPRPRPVLGPRP	0.447
RRIRSRPPRLPRPRPRPVLIPRP	-0.000674
RRIRSRPPRLPRPRPRPVLLPRP	-0.315
RRIRSRPPRLPRPRPRPVLPPRP	-0.167
RRIRSRPPRLPRPRPRPVMAPRP	0.304
RRIRSRPPRLPRPRPRPVMCPRP	-0.173
RRIRSRPPRLPRPRPRPVMNPRP	0.0346
RRIRSRPPRLPRPRPRPVNKPRP	-0.404
RRIRSRPPRLPRPRPRPVNYPRP	-0.0921
RRIRSRPPRLPRPRPRPVQKPRP	0.178
RRIRSRPPRLPRPRPRPVQNPRP	0.0832
RRIRSRPPRLPRPRPRPVRMPRP	0.0776
RRIRSRPPRLPRPRPRPVSQPRP	-0.0165
RRIRSRPPRLPRPRPRPVSYPRP	-0.0884
RRIRSRPPRLPRPRPRPVTNPRP	-0.0242
RRIRSRPPRLPRPRPRPVVPPRP	0.0433
RRIRSRPPRLPRPRPRPVVQPRP	-0.0812
RRIRSRPPRLPRPRPRPVWGPRP	0.185
RRIRSRPPRLPRPRPRPVWMPRP	0.396
RRIRSRPPRLPRPRPRPVWPPRP	0.434

Sequence	shrunken log2 fold change
RRIRSRPPRLPRPRPRPVYLPRP	-0.519
RRIRSRPPRLPRPRPRPWAEPRP	0.0168
RRIRSRPPRLPRPRPRPWAKPRP	-0.00197
RRIRSRPPRLPRPRPRPWCVPRP	-0.22
RRIRSRPPRLPRPRPRPWDVPRP	0.166
RRIRSRPPRLPRPRPRPWEHPRP	0.089
RRIRSRPPRLPRPRPRPWELPRP	0.637
RRIRSRPPRLPRPRPRPWESPRP	0.0145
RRIRSRPPRLPRPRPRPWFQPRP	-0.246
RRIRSRPPRLPRPRPRPWGEPRP	0.00882
RRIRSRPPRLPRPRPRPWGTPRP	-0.222
RRIRSRPPRLPRPRPRPWHQPRP	-0.25
RRIRSRPPRLPRPRPRPWIIPRP	-0.159
RRIRSRPPRLPRPRPRPWLPPRP	0.0131
RRIRSRPPRLPRPRPRPWMGPRP	-0.238
RRIRSRPPRLPRPRPRPWNFPRP	-0.0212
RRIRSRPPRLPRPRPRPWNYPRP	0.0149
RRIRSRPPRLPRPRPRPWPIPRP	0.0295
RRIRSRPPRLPRPRPRPWPPPRP	0.51
RRIRSRPPRLPRPRPRPWQEPRP	0.131
RRIRSRPPRLPRPRPRPWQPPRP	0.155
RRIRSRPPRLPRPRPRPWRAPRP	0.183
RRIRSRPPRLPRPRPRPWRCPRP	0.0757
RRIRSRPPRLPRPRPRPWRHPRP	-0.106
RRIRSRPPRLPRPRPRPWRNPRP	-0.0428

Sequence	shrunken log2 fold change
RRIRSRPPRLPRPRPRPWRYPRP	-0.336
RRIRSRPPRLPRPRPRPWSQPRP	-0.00693
RRIRSRPPRLPRPRPRPWSSPRP	0.0531
RRIRSRPPRLPRPRPRPWTCPRP	0.00516
RRIRSRPPRLPRPRPRPWTSPRP	0.0101
RRIRSRPPRLPRPRPRPWVFPRP	0.0645
RRIRSRPPRLPRPRPRPWVIPRP	-0.201
RRIRSRPPRLPRPRPRPWVMPRP	-0.0894
RRIRSRPPRLPRPRPRPWWAPRP	-0.0137
RRIRSRPPRLPRPRPRPWWIPRP	0.0584
RRIRSRPPRLPRPRPRPYACPRP	-0.0148
RRIRSRPPRLPRPRPRPYADPRP	-0.179
RRIRSRPPRLPRPRPRPYAPPRP	-0.205
RRIRSRPPRLPRPRPRPYCTPRP	-0.256
RRIRSRPPRLPRPRPRPYDNPRP	-0.0962
RRIRSRPPRLPRPRPRPYDWPRP	-0.102
RRIRSRPPRLPRPRPRPYEDPRP	-0.129
RRIRSRPPRLPRPRPRPYGAPRP	-0.318
RRIRSRPPRLPRPRPRPYHEPRP	-1.19
RRIRSRPPRLPRPRPRPYIHPRP	-0.737
RRIRSRPPRLPRPRPRPYIMPRP	-0.845
RRIRSRPPRLPRPRPRPYKPPRP	-0.195
RRIRSRPPRLPRPRPRPYLHPRP	-0.757
RRIRSRPPRLPRPRPRPYLIPRP	-0.363
RRIRSRPPRLPRPRPRPYNIPRP	-0.579
